One test addresses T1, mouse CD39 (mouse, UniProt P55772 38-478, limits assumed).
T1 construct: Target as named in the general statement on 5F2 specificity; also called mCD39
T1 sequence (looked up): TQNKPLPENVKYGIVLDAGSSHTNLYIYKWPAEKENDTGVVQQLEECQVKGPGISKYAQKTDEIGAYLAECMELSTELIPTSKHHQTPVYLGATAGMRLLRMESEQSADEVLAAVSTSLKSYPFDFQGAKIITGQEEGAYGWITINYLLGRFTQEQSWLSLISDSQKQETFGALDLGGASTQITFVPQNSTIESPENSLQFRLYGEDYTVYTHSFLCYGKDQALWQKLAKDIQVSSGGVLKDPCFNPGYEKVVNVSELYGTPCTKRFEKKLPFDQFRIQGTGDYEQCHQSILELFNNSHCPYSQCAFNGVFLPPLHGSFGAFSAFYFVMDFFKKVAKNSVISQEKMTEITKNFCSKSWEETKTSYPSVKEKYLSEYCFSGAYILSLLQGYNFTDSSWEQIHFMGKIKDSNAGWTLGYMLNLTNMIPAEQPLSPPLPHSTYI
In words: assay not described.

The target of the next test is T2, human CD39 (human, UniProt P49961 38-478, limits assumed).
T2 construct: Target as named in the general statements on 5F2 and PB1-PB5 specificity; also called hCD39; ectonucleoside triphosphate diphosphohydrolase-1
T2 sequence (looked up): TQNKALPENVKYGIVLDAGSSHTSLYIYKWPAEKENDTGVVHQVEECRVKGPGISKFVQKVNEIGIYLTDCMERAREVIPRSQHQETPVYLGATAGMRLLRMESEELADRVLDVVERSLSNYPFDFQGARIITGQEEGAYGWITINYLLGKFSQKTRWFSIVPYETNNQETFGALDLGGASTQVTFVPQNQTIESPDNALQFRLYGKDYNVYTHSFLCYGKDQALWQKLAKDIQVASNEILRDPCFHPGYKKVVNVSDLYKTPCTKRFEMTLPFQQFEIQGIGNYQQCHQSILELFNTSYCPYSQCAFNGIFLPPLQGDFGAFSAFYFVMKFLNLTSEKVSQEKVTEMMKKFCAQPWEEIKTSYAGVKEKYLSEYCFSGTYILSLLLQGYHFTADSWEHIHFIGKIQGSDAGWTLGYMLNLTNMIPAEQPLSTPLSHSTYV
In words: assay not described.

B1: murine monoclonal 5F2 (anti-CD39 antibody) (antibody, V domains shown)
VH: EVQLEESGPGLVQPSQRLSITCTISGFSLTSYGIHWVRQSPGKGLEWLGVIWSGGNTDYNAAFISRLSISKDNSKSQVFFKMNSLQVGDTATYYCARNGHGSNIPWFVYWGQGTLVTVST
VL: DIQLTQSPASLSVATGEKVTIRCITSTDVDDDMNWFQQKPGEPPNLLISEGDTLRPGVPSRFSSSGYGTDFVFTIENTLSEDVADYYCLQSDNMPLTFGGGTKLEIK
notes: also called anti-CD39 5F2 antibody; 5F2 mAb
As for B1, the binding result with mouse CD39 and with human CD39 was “binds” in each case.

B2: PB4 rabbit monoclonal anti-human CD39 antibody (antibody, V domains shown)
VH: QEQLVESGGGLVQPEGSLTLTCTASGFSFSSSYYMCWVRQAPGKGLEWIGCIYIGSSTTYYATWAKGRFTISKTSSTAVTLQMTGLTAADTATYFCARDQYDDSGNLWGPGTLVTVSS
VL: DVVMTQTPASVSEPVGGTVTIKCQASQSIYSGLAWYQQKPGQPPNLLIYKASNLASGVSSRFKGSRSGTEYTLTISDLECADAATYYCQNWYGISSYGRAFGGGTEVVVKG
notes: Full rabbit heavy and light chains
Consider B2, for which the binding result with human CD39 is listed as “binds”.

The values above are taken from patent US20210253731A1 (BETH ISRAEL DEACONESS MEDICAL CENTER, published 2021).
